One block for each molecule: values may come before it. Peptide text beside a SMILES is read from it. * marks the point of attachment. Cbz = O=C(OCc1ccccc1)*; CH2F = FC*
Columns and labels:
rev-caspase-6 = molecular target: T1, rev-caspase-6 (Homo sapiens, UniProt P55212); assay: Autocatalytic processing of in vitro translated rev-caspase-6 (SDS-PAGE/autoradiography); assay type: biochemical; design: T7-tag (15 residues) (N); made in house; host or cells: in vitro translation in rabbit reticulocyte lysate (TNT Kit, Promega); settings: at the concentration used (zVAD-fmk 0-5 μM); p35 data not shown
T1 sequence (P55212 with tags, fused parts or gaps): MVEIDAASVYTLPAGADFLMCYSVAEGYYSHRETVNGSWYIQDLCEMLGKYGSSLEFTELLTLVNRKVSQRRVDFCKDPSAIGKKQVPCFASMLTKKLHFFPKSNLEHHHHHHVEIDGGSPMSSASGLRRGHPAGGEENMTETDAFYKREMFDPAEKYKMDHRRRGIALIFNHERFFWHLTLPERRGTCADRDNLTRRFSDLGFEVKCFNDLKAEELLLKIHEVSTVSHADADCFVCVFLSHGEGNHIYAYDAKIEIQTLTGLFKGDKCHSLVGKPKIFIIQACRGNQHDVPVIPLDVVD
Procedure: (§1) FIGS. 2B and C are scanned images of autoradiograms representing SDS-PAGE analysis of the autoprocessing of rev-caspase-3 and -6, respectively in the presence of varying levels of selected caspase inhibitors. Rev-caspase-3 (FIG. 2B) or rev-caspase-6 (FIG. 2C) were in vitro translated in the presence of increasing concentrations of DEVD-CHO […]; (SEQ ID NO:52), or zVAD-fmk (0-5 μM). The translation products were then analyzed as in FIG. 2A. WT, wild-type.
(§2) ^35S-labeled caspases (wild-type and rev-caspases) were obtained by in vitro translation in the presence of ^35S-methionine using a coupled transcription/translation system in rabbit reticulocyte lysate using TNT Kit (Promega) according to the manufacturer's recommendations.
(§3) To test the effect of selected caspase inhibitors on the autocatalytic activity of rev-caspase-3 and 6, the rev-caspases were translated as in Example 3, but in the presence of varying amounts of inhibitors.

rev-caspase-3 = molecular target: T2, rev-caspase-3 (Homo sapiens, UniProt P42574); assay: Autocatalytic processing of in vitro translated rev-caspase-3 (SDS-PAGE/autoradiography); assay type: biochemical; design: T7-tag (15 residues) (N); made in house; host or cells: in vitro translation in rabbit reticulocyte lysate (TNT Kit, Promega)
T2 sequence (P42574 with tags, fused parts or gaps): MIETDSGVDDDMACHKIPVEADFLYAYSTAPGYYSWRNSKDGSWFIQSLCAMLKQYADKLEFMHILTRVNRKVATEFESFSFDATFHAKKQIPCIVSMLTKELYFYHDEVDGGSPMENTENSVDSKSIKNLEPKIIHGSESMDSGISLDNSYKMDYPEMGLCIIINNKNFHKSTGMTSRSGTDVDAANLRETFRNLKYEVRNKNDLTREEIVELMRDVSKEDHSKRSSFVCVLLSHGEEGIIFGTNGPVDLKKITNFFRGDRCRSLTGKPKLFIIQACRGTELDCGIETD
Procedure: as §1, §2, §3

[1] = molecular target: T3, uncleavable rev-caspase-3 (Homo sapiens, UniProt P42574, D28A/D9A); assay: In vitro translation of uncleavable rev-caspase-3: His6-T7-tag processing; assay type: biochemical
T3 construct: uncleavable rev-caspase-3 (B); made in house; host or cells: in vitro translation in rabbit reticulocyte lysate (TNT Kit, Promega)
T3 sequence (P42574 with tags, fused parts or gaps D9A/D28A): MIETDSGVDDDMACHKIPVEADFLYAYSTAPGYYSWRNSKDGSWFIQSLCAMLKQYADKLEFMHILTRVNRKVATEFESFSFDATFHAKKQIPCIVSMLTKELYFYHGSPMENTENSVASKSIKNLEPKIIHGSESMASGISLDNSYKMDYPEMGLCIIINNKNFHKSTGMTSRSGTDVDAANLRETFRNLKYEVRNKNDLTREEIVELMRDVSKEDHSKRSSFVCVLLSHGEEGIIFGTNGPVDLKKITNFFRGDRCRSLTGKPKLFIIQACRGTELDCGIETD
Text: FIG. 5A is a scanned image of an autoradiogram representing SDS-PAGE analysis of the enzymatic activity of uncleavable rev-caspase-3. Uncleavable rev-caspase-3 was in vitro translated in the absence or the presence of increasing concentrations of DEVD-CHO (SEQ ID NO:52),. The translation product contains a cleavable 35 residues-long His6-T7-tag at its N-terminus. The active site mutant rev-caspase-3 (Rev C/A) was used as a control. The p32 cleavage product without the His6-T7-tag is indicated to the right.
^35S-labeled caspases (wild-type and rev-caspases) were obtained by in vitro translation in the presence of ^35S-methionine using a coupled transcription/translation system in rabbit reticulocyte lysate using TNT Kit (Promega) according to the manufacturer's recommendations. […] Because the in vitro translated products are present at very low concentration in the reaction mixture, the observed cleavage must be attributed to an intramolecular processing within the caspase heterotetramer.
However, to follow the activity of this molecule a cleavable 35 residue long His6-T7-tag N-terminal to the IETD (SEQ ID NO:53) site was introduced (see FIG. 1B). […] Nevertheless, the translated molecule was active as evident from its ability to cleave its T7-tag to form the p32 species (FIG. 5). In the presence of 400 nM DEVD-CHO (SEQ ID NO:52), processing of the T7-tag was inhibited and only the full length p34 species can be seen. […] Thus by mimicking the mature caspase structure, it is possible to design a contiguous active caspase molecules.

MCF-7 cells = assay: Induction of apoptosis in transfected MCF-7 cells (round blue apoptotic cells); assay type: cell-based, human
Procedure: FIGS. 4A and B are bar diagrams representing the ability of rev-caspase-3 and -6 to induce apoptosis in MCF-7 cells. MCF-7 cells were transiently transfected with either rev-caspase-3 (FIG. 4A), or rev-caspase-6 (FIG. 4B) expression constructs in combination with 4-fold of CrmA, p35 or Bcl-2 expression constructs, or 20 μM zVAD-fmk. Cells transfected with an empty vector or the wild-type caspase-3 or -6 were used as controls.
To express the rev-caspases in mammalian cells and assay their apoptotic activity, they were amplified with the T7-tag primer and the LS-reverse primers using the pET28a constructs as templates, and subcloned into the mammalian double expression vector pRSC-LacZ (MacFarlane et al., J. Biol. Chem., 272: 25417-25420, 1997; Tsang et al., Bio/Technology, 22: 68, 1997). This vector allows the expression of lacZ under the Rous Sarcoma virus promoter, and the test cDNA under the CMV promoter. To assay for apoptosis, MCF-7 or 293 cells were transfected, using the method commercially available as the Lipofect Amine method (Life Technologies, Inc.), with the pRSC-LacZ constructs in the presence or absence of different apoptosis-inhibitors. 30 h after transfection cells were stained with β-galactosidase and examined for morphological signs of apoptosis. The percentage of round blue apoptotic cells (mean±SD) were represented as a function of total blue cells under each condition (n≧3).
To determine the apoptotic activity of rev-caspase-3 and 6 in vivo, the rev-caspases were expressed in human MCF-7 cells, transfected as explained above in Example 2.

human PARP = assay: Cleavage of PARP by bacterially expressed caspases (Western blot); assay type: biochemical; settings: BL-21 bacterial extracts, 2 h at 37° C.
Procedure: (§4) FIGS. 3A and B are scanned images representing the SDS-PAGE analysis of the ability of rev-caspase-3 (imaged by western blot) and -6 (imaged by autoradiogram) to cleave PARP and lamin, respectively. In FIG. 3A purified human PARP was incubated with buffer (lane 1) or BL-21 bacterial extracts prepared from bacteria transformed with caspase-3 (lane 2), rev-caspase-3 (lane 3), caspase-6 (lane 4), rev-caspase-6 (lane 5) constructs or empty pET28a vector (lane 6) for 2 h at 37° C. The reaction products were then analyzed by SDS-PAGE and Western blotting with anti-human PARP antibody. In FIG. 3B a cDNA encoding the C-terminus of lamin A (amino acids) which contain the caspase-6 cleavage site (VEIDA); (SEQ ID NO:116), was amplified by PCR and in vitro translated in the presence of ^35S-methionine. The labeled product was incubated with buffer (lane 1) or the BL-21 bacterial extracts listed above for 2 h at 37° C., and then analyzed by SDS-PAGE and autoradiography. The cleavage products are indicated to the right.
(§5) At limited caspase concentrations, poly(ADP) ribose polymerase (PARP) is specifically cleaved by caspase-3 and 7 but not other caspases. Similarly, lamin is specifically cleaved by caspase-6 but not other caspases. […]

lamin A = assay: Cleavage of in vitro translated lamin A C-terminus by bacterially expressed caspases; assay type: biochemical; settings: BL-21 bacterial extracts, 2 h at 37° C.
Procedure: as §4, §5

inhibitory effect on rev-caspase-6 autocatalytic activity compared with rev-caspase-3 (rev-caspase-6): nearly an equal inhibitory effect | inhibitory effect on rev-caspase-3 autocatalytic activity compared with rev-caspase-6 (rev-caspase-3; at the concentration used (zVAD-fmk 0-5 μM), p35 data not shown): nearly an equal inhibitory effect | amount required relative to DEVD-CHO to obtain complete inhibition of caspase-3 activity (rev-caspase-3; in vitro translation of rev-caspase-3): ~10 fold
Molecule: COC(=O)C[C@H](NC(=O)[C@H](C)NC(=O)[C@@H](NC(=O)OCc1ccccc1)C(C)C)C(=O)CF [z-VAD-fmk] (Cbz-Val-Ala-Asp(OMe)-CH2F)

activity of translated molecule (cleaves its T7-tag to form the p32 species) [1]: active
B1: Noncleavable Rev-caspase-3: rev-caspase-3 with DEVD site removed and Asp9 and 28 mutated (SEQ ID NO:35) (protein)
chain: T3 sequence (P42574 with tags, fused parts or gaps D9A/D28A)
modifications: OTHER INFORMATION: Uncleavable Rev-Caspase-3 co ntructed from human caspase -3
cleavage between the two subunits upon in vitro translation [1]: no evidence of cleavage between the two subunits | induction of apoptosis on expression in cells (MCF-7 cells): potently induced apoptosis

Second part, the molecule before the results:

B2: wild-type caspase-3: wild-type human caspase-3 (SEQ ID NO:12) (protein)
chain: MENTENSVDSKSIKNLEPKIIHGSESMDSGISLDNSYKMDYPEMGLCIIINNKNFHKSTGMTSRSGTDVDAANLRETFRNLKYEVRNKNDLTREEIVELMRDVSKEDHSKRSSFVCVLLSHGEEGIIFGTNGPVDLKKITNFFRGDRCRSLTGKPKLFIIQACRGTELDCGIETDSGVDDDMACHKIPVDADFLYAYSTAPGYYSWRNSKDGSWFIQSLCAMLKQYADKLEFMHILTRVNRKVATEFESFSFDATFHAKKQIPCIVSMLTKELYFYH
cleavage of PARP (human PARP): efficiently cleaved PARP

B3: rev-caspase-3: contiguous caspase-3 with small subunit fused N-terminal to large subunit, DEVDG cleavage site between them (SEQ ID NO:34) (protein)
chain: T2 sequence (P42574 with tags, fused parts or gaps)
modifications: OTHER INFORMATION: Rev-Caspase-3 contructed fro m human caspase -3
cleavage of PARP (human PARP): efficiently cleaved PARP | autocatalytic processing in the in vitro translation reaction (rev-caspase-3 constructs) (rev-caspase-3; rabbit reticulocyte lysate, 35S-methionine): able to undergo autocatalytic processing | apoptosis in transfected cells (MCF-7 cells; 30 h after transfection): ~90%

B4: wild-type caspase-6: wild-type human caspase-6 (SEQ ID NO:21) (protein)
chain: MSSASGLRRGHPAGGEENMTETDAFYKREMFDPAEKYKMDHRRRGIALIFNHERFFWHLTLPERRGTCADRDNLTRRFSDLGFEVKCFNDLKAEELLLKIHEVSTVSHADADCFVCVFLSHGEGNHIYAYDAKIEIQTLTGLFKGDKCHSLVGKPKIFIIQACRGNQHDVPVIPLDVVDNQTEKLDTNITEVDAASVYTLPAGADFLMCYSVAEGYYSHRETVNGSWYIQDLCEMLGKYGSSLEFTELLTLVNRKVSQRRVDFCKDPSAIGKKQVPCFASMLTKKLHFFPKSN
cleavage of lamin (lamin A): efficiently cleaved lamin
